In patent publication US20220380464A1 (Genmab, published 2022):

Experiments:
[1] = biological target: T1, human CD3 on human T cells (human, UniProt P07766 23-207); test: flow cytometry on isolated human T cells, PE anti-human IgG detection
T1 construct: Natural CD3/TCR complex on T cells isolated from human donor buffy coats; The other chains of the complex (CD3γ, CD3δ, CD3ζ, polyclonal TCR) are also present on the cells
Method: T cells were Isolated from a buffy coat fraction of anti-coagulated human donor blood samples and resuspended in PBS/0.1% BSA/0.02% azide at 1.8×10E6 cells/mL. 50 μL of T cell suspension and 50 μL of the antibody dilutions were combined in a 96 well plate on ice, Incubated for 30 min at 4° C. and washed twice with PBS/0.1% BSA/0.02% azide. […] The cells were resuspended in 120 μL PBS/0.1% BSA/0.02% azide and PE geometric Mean Fluorescence Intensity was measured. Binding curves were analyzed using non-linear regression (sigmoidal dose-response with variable slope) using GraphPad Prism V5.04 software (GraphPad Software, San Diego, Calif., USA) and apparent affinity (KD) was derived from the concentration at half-maximal binding.

CD3ε27-GSKa [2] = biological target: T2, CD3ε27-GSKa (human); test: BLI (Octet), summary table repeating Table 4
T2 construct: also called Mature CD3ε27-GSKa
T2 sequence (chain, as listed by the source limits assumed): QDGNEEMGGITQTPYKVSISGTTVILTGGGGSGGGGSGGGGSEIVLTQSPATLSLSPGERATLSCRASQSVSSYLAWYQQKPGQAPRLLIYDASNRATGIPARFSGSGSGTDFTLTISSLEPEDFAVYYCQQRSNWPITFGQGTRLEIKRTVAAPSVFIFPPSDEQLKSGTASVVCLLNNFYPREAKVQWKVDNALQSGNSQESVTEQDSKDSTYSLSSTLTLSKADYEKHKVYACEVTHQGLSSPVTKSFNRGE
Method: (§1) Experiments were carried out while shaking at 1000 rpm and at 30° C.

CD3ε27-GSKa [3] = biological target: T2, CD3ε27-GSKa; test: BLI (Octet HTX), UniTE antibody on anti-human Fc sensors, CD3ε27-GSKa in solution, 1:1 fit
Method: as §1

CD3ε27-GSKa [4] = biological target: T2, CD3ε27-GSKa; test: BLI (Octet HTX), IgG on anti-human Fc sensors, CD3ε27-GSKa 1000-1.4 nM in solution, 1:1 fit, average
Method: as §1
Data was analyzed with ForteBio Data Analysis Software v8.1, using the 1:1 model and a global full fit with 1000 s association time and 100 s dissociation time. […] Data traces with a response <0.05 nm were excluded from analysis.

T1 sequence (P07766 23-207 limits assumed): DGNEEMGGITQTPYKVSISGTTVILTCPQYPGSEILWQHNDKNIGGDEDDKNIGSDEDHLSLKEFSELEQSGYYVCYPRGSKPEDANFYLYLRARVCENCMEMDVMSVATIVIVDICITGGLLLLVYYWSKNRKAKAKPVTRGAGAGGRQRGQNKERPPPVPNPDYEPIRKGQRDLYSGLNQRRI

| Binder | Tcell binding average at 5000ng/ml (Geometric MFI) [1] [Geometric MFI] | Kd (CD3ε27-GSKa [2]) [nM] | Ka (CD3ε27-GSKa [3]) [M⁻¹] | Kd (CD3ε27-GSKa [3]) [nM] | Kd (CD3ε27-GSKa [4]) [nM] | pKD (CD3ε27-GSKa [4]) |
| --- | --- | --- | --- | --- | --- | --- |
| UniTE-huCD3-H1L1-LT41K (antibody, V domains shown, also called UniTE-huCD3-H1L1-LT41K (WT); UniTE-huCD3-H1L1-T41K) VH: EVKLVESGGGLVQPGGSLRLSCAASGFTFNTYAMNWVRQAPGKGLEWVARIRSKYNNYATYYADSVKDRFTISRDDSKSSLYLQMNNLKTEDTAMYYCVRHGNFGNSYVSWFAYWGQGTLVTVSS VL: not shown | 13200 | 34 | 3e+07 | 34 | – | – |
| IgG1-huCD3-Y114R-FEAL (antibody, V domains shown) VH: EVKLVESGGGLVQPGGSLRLSCAASGFTFNTYAMNWVRQAPGKGLEWVARIRSKYNNYATYYADSVKDRFTISRDDSKSSLYLQMNNLKTEDTAMYYCVRHGNFGNSYVSWFARWGQGTLVTVSS VL: not shown | – | – | – | – | 46 | 7.3 |
| UniTE-huCD3-H1L1-N57E-LT41K (antibody, V domains shown, Monovalent UniBody-TE format) VH: EVKLVESGGGLVQPGGSLRLSCAASGFTFNTYAMNWVRQAPGKGLEWVARIRSKYNEYATYYADSVKDRFTISRDDSKSSLYLQMNNLKTEDTAMYYCVRHGNFGNSYVSWFAYWGQGTLVTVSS VL: not shown | 8490 | 24 | 4.1e+07 | 24 | – | – |
| UniTE-huCD3-H1L1-Y32A-LT41K (antibody, V domains shown, Monovalent UniBody-TE format) VH: EVKLVESGGGLVQPGGSLRLSCAASGFTFNTAAMNWVRQAPGKGLEWVARIRSKYNNYATYYADSVKDRFTISRDDSKSSLYLQMNNLKTEDTAMYYCVRHGNFGNSYVSWFAYWGQGTLVTVSS VL: not shown | 719 | – | – | – | – | – |
| IgG1-huCD3-N57E-FEAL (antibody, V domains shown) VH: EVKLVESGGGLVQPGGSLRLSCAASGFTFNTYAMNWVRQAPGKGLEWVARIRSKYNEYATYYADSVKDRFTISRDDSKSSLYLQMNNLKTEDTAMYYCVRHGNFGNSYVSWFAYWGQGTLVTVSS VL: not shown | – | – | – | – | 91 | 7 |
| UniTE-huCD3-H1L1-S110A-LT41K (antibody, V domains shown, Monovalent UniBody-TE format) VH: EVKLVESGGGLVQPGGSLRLSCAASGFTFNTYAMNWVRQAPGKGLEWVARIRSKYNNYATYYADSVKDRFTISRDDSKSSLYLQMNNLKTEDTAMYYCVRHGNFGNSYVAWFAYWGQGTLVTVSS VL: not shown | 1660 | 320 | 3.1e+06 | 320 | – | – |
| UniTE-huCD3-H1L1-H101I-LT41K (antibody, V domains shown, Monovalent UniBody-TE format) VH: EVKLVESGGGLVQPGGSLRLSCAASGFTFNTYAMNWVRQAPGKGLEWVARIRSKYNNYATYYADSVKDRFTISRDDSKSSLYLQMNNLKTEDTAMYYCVRIGNFGNSYVSWFAYWGQGTLVTVSS VL: not shown | – | 220 | 4.6e+06 | 220 | – | – |
| IgG1-huCD3-T31M-FEAL (antibody, V domains shown) VH: EVKLVESGGGLVQPGGSLRLSCAASGFTFNMYAMNWVRQAPGKGLEWVARIRSKYNNYATYYADSVKDRFTISRDDSKSSLYLQMNNLKTEDTAMYYCVRHGNFGNSYVSWFAYWGQGTLVTVSS VL: not shown | – | – | – | – | 99 | 7 |
| UniTE-huCD3-H1L1-T31A-LT41K (antibody, V domains shown, Monovalent UniBody-TE format) VH: EVKLVESGGGLVQPGGSLRLSCAASGFTFNAYAMNWVRQAPGKGLEWVARIRSKYNNYATYYADSVKDRFTISRDDSKSSLYLQMNNLKTEDTAMYYCVRHGNFGNSYVSWFAYWGQGTLVTVSS VL: not shown | 10200 | – | – | – | – | – |
| IgG1-huCD3-Y114V-FEAL (antibody, V domains shown) VH: EVKLVESGGGLVQPGGSLRLSCAASGFTFNTYAMNWVRQAPGKGLEWVARIRSKYNNYATYYADSVKDRFTISRDDSKSSLYLQMNNLKTEDTAMYYCVRHGNFGNSYVSWFAVWGQGTLVTVSS VL: not shown | – | – | – | – | 29 | 7.5 |
| UniTE-huCD3-H1L1-H101K-LT41K (antibody, V domains shown, Monovalent UniBody-TE format) VH: EVKLVESGGGLVQPGGSLRLSCAASGFTFNTYAMNWVRQAPGKGLEWVARIRSKYNNYATYYADSVKDRFTISRDDSKSSLYLQMNNLKTEDTAMYYCVRKGNFGNSYVSWFAYWGQGTLVTVSS VL: not shown | 1320 | – | – | – | – | – |
| UniTE-huCD3-H1L1-H101G-LT41K (antibody, V domains shown, Monovalent UniBody-TE format) VH: EVKLVESGGGLVQPGGSLRLSCAASGFTFNTYAMNWVRQAPGKGLEWVARIRSKYNNYATYYADSVKDRFTISRDDSKSSLYLQMNNLKTEDTAMYYCVRGGNFGNSYVSWFAYWGQGTLVTVSS VL: not shown | 492 | 970 | 1e+06 | 970 | – | – |
| UniTE-huCD3-H1L1-S110G-LT41K (antibody, V domains shown, Monovalent UniBody-TE format) VH: EVKLVESGGGLVQPGGSLRLSCAASGFTFNTYAMNWVRQAPGKGLEWVARIRSKYNNYATYYADSVKDRFTISRDDSKSSLYLQMNNLKTEDTAMYYCVRHGNFGNSYVGWFAYWGQGTLVTVSS VL: not shown | 949 | 61 | 1.6e+07 | 61 | – | – |
| IgG1-huCD3-Y32A-FEAL (antibody, V domains shown) VH: EVKLVESGGGLVQPGGSLRLSCAASGFTFNTAAMNWVRQAPGKGLEWVARIRSKYNNYATYYADSVKDRFTISRDDSKSSLYLQMNNLKTEDTAMYYCVRHGNFGNSYVSWFAYWGQGTLVTVSS VL: not shown | – | – | – | – | 105 | 7 |
| IgG1-huCD3-H101K-FEAL (antibody, V domains shown) VH: EVKLVESGGGLVQPGGSLRLSCAASGFTFNTYAMNWVRQAPGKGLEWVARIRSKYNNYATYYADSVKDRFTISRDDSKSSLYLQMNNLKTEDTAMYYCVRKGNFGNSYVSWFAYWGQGTLVTVSS VL: not shown | – | – | – | – | 120 | 6.9 |
| IgG1-huCD3-Y114M-FEAL (antibody, V domains shown) VH: EVKLVESGGGLVQPGGSLRLSCAASGFTFNTYAMNWVRQAPGKGLEWVARIRSKYNNYATYYADSVKDRFTISRDDSKSSLYLQMNNLKTEDTAMYYCVRHGNFGNSYVSWFAMWGQGTLVTVSS VL: not shown | – | – | – | – | 42 | 7.4 |
| UniTE-huCD3-H1L1-Y114R-LT41K (antibody, V domains shown, Monovalent UniBody-TE format) VH: EVKLVESGGGLVQPGGSLRLSCAASGFTFNTYAMNWVRQAPGKGLEWVARIRSKYNNYATYYADSVKDRFTISRDDSKSSLYLQMNNLKTEDTAMYYCVRHGNFGNSYVSWFARWGQGTLVTVSS VL: not shown | 6200 | – | – | – | – | – |
| UniTE-huCD3-H1L1-H101N-LT41K (antibody, V domains shown, Monovalent UniBody-TE format) VH: EVKLVESGGGLVQPGGSLRLSCAASGFTFNTYAMNWVRQAPGKGLEWVARIRSKYNNYATYYADSVKDRFTISRDDSKSSLYLQMNNLKTEDTAMYYCVRNGNFGNSYVSWFAYWGQGTLVTVSS VL: not shown | 848 | 200 | 5.1e+06 | 200 | – | – |
| IgG1-huCD3-S110G-FEAL (antibody, V domains shown) VH: EVKLVESGGGLVQPGGSLRLSCAASGFTFNTYAMNWVRQAPGKGLEWVARIRSKYNNYATYYADSVKDRFTISRDDSKSSLYLQMNNLKTEDTAMYYCVRHGNFGNSYVGWFAYWGQGTLVTVSS VL: not shown | – | – | – | – | 153 | 6.8 |
| IgG1-huCD3-H101L-FEAL (antibody, V domains shown) VH: EVKLVESGGGLVQPGGSLRLSCAASGFTFNTYAMNWVRQAPGKGLEWVARIRSKYNNYATYYADSVKDRFTISRDDSKSSLYLQMNNLKTEDTAMYYCVRLGNFGNSYVSWFAYWGQGTLVTVSS VL: not shown | – | – | – | – | 107 | 7 |
| IgG1-huCD3-G105P-FEAL (antibody, V domains shown) VH: EVKLVESGGGLVQPGGSLRLSCAASGFTFNTYAMNWVRQAPGKGLEWVARIRSKYNNYATYYADSVKDRFTISRDDSKSSLYLQMNNLKTEDTAMYYCVRHGNFPNSYVSWFAYWGQGTLVTVSS VL: not shown | – | – | – | – | 5 | 8.3 |
| IgG1-huCD3-S110A-FEAL (antibody, V domains shown) VH: EVKLVESGGGLVQPGGSLRLSCAASGFTFNTYAMNWVRQAPGKGLEWVARIRSKYNNYATYYADSVKDRFTISRDDSKSSLYLQMNNLKTEDTAMYYCVRHGNFGNSYVAWFAYWGQGTLVTVSS VL: not shown | – | – | – | – | 72 | 7.1 |
| UniTE-huCD3-H1L1-G105P-LT41K (antibody, V domains shown, Monovalent UniBody-TE format) VH: EVKLVESGGGLVQPGGSLRLSCAASGFTFNTYAMNWVRQAPGKGLEWVARIRSKYNNYATYYADSVKDRFTISRDDSKSSLYLQMNNLKTEDTAMYYCVRHGNFPNSYVSWFAYWGQGTLVTVSS VL: not shown | 10500 | 35 | 2.8e+07 | 35 | – | – |
| IgG1-huCD3-H101N-FEAL (antibody, V domains shown) VH: EVKLVESGGGLVQPGGSLRLSCAASGFTFNTYAMNWVRQAPGKGLEWVARIRSKYNNYATYYADSVKDRFTISRDDSKSSLYLQMNNLKTEDTAMYYCVRNGNFGNSYVSWFAYWGQGTLVTVSS VL: not shown | – | – | – | – | 45 | 7.3 |
| IgG1-huCD3-T31P-FEAL (antibody, V domains shown) VH: EVKLVESGGGLVQPGGSLRLSCAASGFTFNPYAMNWVRQAPGKGLEWVARIRSKYNNYATYYADSVKDRFTISRDDSKSSLYLQMNNLKTEDTAMYYCVRHGNFGNSYVSWFAYWGQGTLVTVSS VL: not shown | – | – | – | – | 42 | 7.4 |
